From article PMC2889927 come the findings set out here.

Holding throughout (test): flow cytometry on cells; PE-conjugated OCH-loaded human CD1d tetramers on human iNKT clones; 4°C, 45 min; mean fluorescence intensity
In general terms: Flow cytometry measures light scatter and fluorescence of single cells or particles in a stream.

The target of assay [1] is TCR of the human iNKT clone 4C1227, on the cells of the clone (human).
Assay [2] addresses TCR of the human iNKT clone 4C1369, on the cells of the clone (human).
Assay [3] deals with TCR of the human iNKT clone 4C862, on the cells of the clone (human).
Assay [4] addresses TCR of the human iNKT clone 4C866, on the cells of the clone (human).
The target in assay [5] is TCR of the human iNKT clone DN347, on the cells of the clone (human).

B1: PE-conjugated human CD1d tetramer loaded with OCH (complex)
chain: EVPQRLFPLRCLQISSFANSSWTRTDGLAWLGELQTHSWSNDSDTVRSLKPWSQGTFSDQQWETLQHIFRVYRSSFTRDVKEFAKMLRLSYPLELQVSAGCEVHPGNASNNFFHVAFQGKDILSFQGTSWEPTQEAPLWVNLAIQVLNQDKWTRETVQWLLNGTCPQFVSGLLESGKSELKKQVKPKAWLSRGPSPGPGRLLLVCHVSGFYPKPVWVKWMRGEQEQQGTQPGDILPNADETWYLRATLDVVAGEAAGLSCRVKHSSLEGQDIVLYWGGSYTSMGLIALAVLACLLFLLIVGFTSRFKRQTSYQGVL
On to B1, for which the OCH-tet (MFI) in assay [1] came to 1230 MFI; in assay [2], 1370 MFI; in assay [3], 862 MFI; in assay [4] it was 866 MFI; in assay [5] it was 347 MFI.
